Experimental data published in patent US20040110688.

Target: factor VIIIa (UniProt P00451)
Sequence (P00451 other isoform, or with tags, fused parts or gaps): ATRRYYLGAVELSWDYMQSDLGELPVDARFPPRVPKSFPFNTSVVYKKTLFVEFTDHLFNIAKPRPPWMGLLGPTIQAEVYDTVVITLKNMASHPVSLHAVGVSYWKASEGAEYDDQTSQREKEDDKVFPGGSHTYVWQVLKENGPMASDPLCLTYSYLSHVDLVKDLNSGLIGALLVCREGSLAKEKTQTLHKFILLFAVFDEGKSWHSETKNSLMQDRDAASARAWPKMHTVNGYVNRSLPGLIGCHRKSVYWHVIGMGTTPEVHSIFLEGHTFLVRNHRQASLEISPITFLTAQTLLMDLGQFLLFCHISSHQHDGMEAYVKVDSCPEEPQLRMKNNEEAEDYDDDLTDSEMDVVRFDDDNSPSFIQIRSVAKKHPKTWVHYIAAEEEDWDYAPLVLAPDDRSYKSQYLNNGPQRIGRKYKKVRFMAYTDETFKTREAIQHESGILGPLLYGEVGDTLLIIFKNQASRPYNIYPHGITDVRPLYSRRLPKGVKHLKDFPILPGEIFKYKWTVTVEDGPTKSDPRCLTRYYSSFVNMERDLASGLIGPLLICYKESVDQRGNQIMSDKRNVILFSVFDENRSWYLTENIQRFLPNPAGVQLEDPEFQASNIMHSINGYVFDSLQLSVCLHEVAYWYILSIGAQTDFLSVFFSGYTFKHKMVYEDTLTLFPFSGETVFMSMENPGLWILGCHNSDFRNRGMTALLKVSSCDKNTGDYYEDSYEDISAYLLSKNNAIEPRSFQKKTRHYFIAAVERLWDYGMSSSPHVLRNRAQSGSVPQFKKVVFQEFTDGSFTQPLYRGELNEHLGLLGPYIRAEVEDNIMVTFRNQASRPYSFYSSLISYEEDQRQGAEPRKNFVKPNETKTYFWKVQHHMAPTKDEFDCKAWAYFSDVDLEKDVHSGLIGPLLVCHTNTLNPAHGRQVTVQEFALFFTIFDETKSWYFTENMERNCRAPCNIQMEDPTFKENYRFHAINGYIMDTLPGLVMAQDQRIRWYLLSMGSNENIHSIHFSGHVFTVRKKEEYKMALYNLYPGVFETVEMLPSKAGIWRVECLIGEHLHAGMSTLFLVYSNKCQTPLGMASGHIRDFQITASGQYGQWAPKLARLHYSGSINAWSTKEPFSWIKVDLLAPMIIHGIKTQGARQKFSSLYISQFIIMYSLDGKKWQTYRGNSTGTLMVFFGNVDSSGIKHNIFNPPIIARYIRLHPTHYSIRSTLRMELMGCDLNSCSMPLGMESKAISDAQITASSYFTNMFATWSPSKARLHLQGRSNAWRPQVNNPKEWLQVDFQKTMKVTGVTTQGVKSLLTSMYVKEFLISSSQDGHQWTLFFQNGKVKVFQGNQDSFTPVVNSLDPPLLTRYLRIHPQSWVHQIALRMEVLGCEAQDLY

Substance | X-activation rate, PL-minus system (14 nM VIIIa, 400 nM X) | X-activation rate, PL-plus system (70 pM VIIIa, 0.5 nM IXa, 15 nM X) | rate of factor X activation with phospholipid, factor VIIIa increased from 70 pM to 14 nM
IXaD332Y | NM | NM | IXaD332Y ~4.1 nM/min
IXaL330I | 0.94 nM/min | 0.95 nM/min | –
IXaL337I | NM | NM | IXaL337I ~3.2 nM/min
IXaPCEGF1 | 2.71 nM/min | NM | –
IXaQ50P | 2.81 nM/min | NM | –
IXaR333L | NM | NM | IXaP333L ~2.7 nM/min
IXaR333Q | NM | NM | IXaR333Q ~2.4 nM/min
IXaR338Q | 2.22 nM/min | 2.53 nM/min | –
IXaT335A | 1.83 nM/min | 1.92 nM/min | –
